Results: patent publication US6555107

Target: human CXCR4 (human) (UniProt P61073)
Assay: cell-based or functional assay

Sequence of UniProt P61073 (P61073 whole entry): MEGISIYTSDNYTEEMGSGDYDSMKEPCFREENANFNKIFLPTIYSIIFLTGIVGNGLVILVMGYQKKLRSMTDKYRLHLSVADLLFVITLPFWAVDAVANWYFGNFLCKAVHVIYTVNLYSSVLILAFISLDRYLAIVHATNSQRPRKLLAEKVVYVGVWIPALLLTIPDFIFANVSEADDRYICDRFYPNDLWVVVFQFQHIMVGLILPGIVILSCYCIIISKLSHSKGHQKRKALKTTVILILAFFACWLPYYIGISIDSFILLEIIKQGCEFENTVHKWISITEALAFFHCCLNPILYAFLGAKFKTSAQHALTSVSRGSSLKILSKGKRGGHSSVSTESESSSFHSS

## FIV envelope protein (product of the env gene of FIV clone 34TF10, Petaluma strain) (from UniProt P16090 1-856)
  infectivity of replication-competent 34TF10 on CRFK.CXCR4 against CRFK cells (focal infectivity assay): 8 fold
  titer of FIV Env-enveloped CTRZLb vector on CRFK.CXCR4 cells (transducing units/ml): 360
